Experimental data reported in paper PMC7589982.

Biological target: HPV16 E6 oncoprotein, full-length, LexA bait (pGilda/LexA) (human papillomavirus 16) (UniProt P03126)
Assay: two-hybrid; full-length HPV16 E6 in pGilda/LexA as bait; growth on medium lacking leucine, blue colonies, beta-galactosidase activity (unit) with ONPG

UniProt P03126, sequence (P03126 whole entry): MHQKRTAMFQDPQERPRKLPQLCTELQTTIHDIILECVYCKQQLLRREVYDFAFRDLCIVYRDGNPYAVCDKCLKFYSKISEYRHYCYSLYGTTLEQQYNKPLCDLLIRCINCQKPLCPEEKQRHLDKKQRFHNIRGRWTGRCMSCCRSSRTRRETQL

“IRF-1 (interferon regulatory factor-1), yeast two-hybrid prey (natural protein)” showed a β-galactosidase activity of 88.2 unit.
